{"source": "paper PMC6930364", "molecular_target": "L-DOPA dioxygenase from Streptomyces sclerotialus (SsDDO) (Streptomyces sclerotialus)", "assay": "crystal structure", "data": [{"substance": "L-DOPA dioxygenase from Streptomyces sclerotialus (SsDDO) (enzyme)", "values": [{"measurement": "stoichiometry N", "value": 2}]}]}
